Assay results reported in paper PMC7041945, “Misfolded proteins bind and activate death receptor 5 to trigger apoptosis during unresolved endoplasmic reticulum stress” (eLife, 2020).

What was measured:
HCT116 cells = assay: Trypan blue staining, automated cell counting; assay type: cell-based, Homo sapiens; design: key to Trypan blue- / Trypan blue+ / avg Trypan blue- / avg Trypan blue+: % of cells (Trypan blue positive or negative); conditions: for Dead concentration / Live concentration / Total Concentration / Viability (%): hct mpz, BF
Experimental: Cells seeded in a 6-well plate were transfected with the specified plasmid for 24 hr and harvested via trypsinization in complete media and ultimately resuspended in 400 μl of media to obtain a concentration of 1.0–3.0 × 10^6 cells/ml. The cell suspension was then mixed 1:1 with 0.4% Trypan blue (Sigma-Aldrich) and incubated at 37°C for 30 min. The percentage of cells staining positive for was then quantified using the Countess II FL Automated Cell Counter (ThermoFisher, catalog # AMQAF1000) default brightfield settings with disposable slides.

[1] = system: CHOP, BiP, and DR5 mRNA in HCT116 cells; assay: qPCR of UPR target transcripts (CHOP, BiP, DR5); assay type: cell-based, Homo sapiens; conditions: HCT116, transfected 24 hr
Experimental: Cells were grown in 6-well plates and harvested with 0.5 ml of TRIzol reagent (Life Technologies) per manufacturer’s protocol to extract RNA. For cDNA synthesis, 500 ng of total RNA was reverse transcribed with 2 μl of the SuperScript VILO master mix (Life Technologies # 11755050) in a total reaction volume of 10 μl following the manufacturer’s protocol for reaction temperature and duration. The reverse transcription product was diluted to 200 μl with 10 mM Tris-HCl pH 8.2 and used at 1:100 dilution for subsequent RT-PCR reactions.
PCR samples were prepared as described by manufacturer’s protocols from iQ SYBR Green Supermix (BioRad #17088800).
For each experiment, qRT-PCR reactions were set up in triplicate and run using a CFX96 Real Time System (Bio-Rad). Quantitation cycles were determined with CFX Manager 3.0 software (Bio-Rad) and then normalized to GAPDH as an internal control.

[2] = biological replicate 1 (05.22.2019)
[3] = biological replicate 2 (05.24.2019)
[4] = biological replicate 3 (05.24.2019)

B1: MPZ-GFP: myelin protein zero with a C-terminal monomeric EGFP, expressed from plasmid (protein)
chain: IVVYTDREVHGAVGSRVTLHCSFWSSEWVSDDISFTWRYQPEGGRDAISIFHYAKGQPYIDEVGTFKERIQWVGDPRWKDGSIVIHNLDYSDNGTFTCDVKNPPDIVGKTSQVTLYVFEKVPTRYGVVLGAVIGGVLGVVLLLLLLFYVVRYCWLRRQAALQRRLSAMEKGKLHKPGKDASKRGRQTPVLYAMLDHSRSTKAVSEKKAKGLGESRKDKK
modifications: left off: monomeric EGFP, C-terminal, kept
notes: myelin protein zero with a C-terminal monomeric EGFP, expressed from plasmid
- Trypan blue+ (HCT116 cells; MPZ-GFP, Rep 1): 47.8261
- Trypan blue- (HCT116 cells; MPZ-GFP, Rep 1): 52.1739
- Trypan blue+ (HCT116 cells; MPZ-GFP, Rep 2): 36.3817
- Trypan blue- (HCT116 cells; MPZ-GFP, Rep 2): 63.6183
- Trypan blue+ (HCT116 cells; MPZ-GFP, Rep 3): 29.5129
- Trypan blue- (HCT116 cells; MPZ-GFP, Rep 3): 70.4871
- avg Trypan blue+ (HCT116 cells; MPZ-GFP, avg of Rep 1-3): 37.9069
- avg Trypan blue- (HCT116 cells; MPZ-GFP, avg of Rep 1-3): 62.0931
- Dead concentration (HCT116 cells; [2]): 3.87E+05
- Live concentration (HCT116 cells; [2]): 4.22E+05
- Total Concentration (HCT116 cells; [2]): 8.09E+05
- Viability (%) (HCT116 cells; [2]): 52.1739%
- Dead concentration (HCT116 cells; [3]): 1.07E+06
- Live concentration (HCT116 cells; [3]): 1.88E+06
- Total Concentration (HCT116 cells; [3]): 2.95E+06
- Viability (%) (HCT116 cells; [3]): 63.6183%
- Dead concentration (HCT116 cells; [4]): 1.21E+06
- Live concentration (HCT116 cells; [4]): 2.89E+06
- Total Concentration (HCT116 cells; [4]): 4.09E+06
- Viability (%) (HCT116 cells; [4]): 70.4871%
- UPR target gene transcription [1]: dose-dependent upregulation of the UPR transcriptional target genes CHOP, BiP, and DR5
